These results are taken from the supplement of paper PMC7877785.

± gives the uncertainty stated by the source.

A short description of this data set: self-splicing fitness, log relative to wild type (ln ratio); higher = more splicing; Tetrahymena group I intron in knt gene, E. coli kanamycin selection, DiMSum; sequences stand for … in CUCUCU…GGAGGGAAAAGUUAUCAGGCAUGCACCUGGUAGCUAGUCUUUAAACCAAUAGAUUGCAUCGGUUUAAAAGGCAAGACCGUCAAAUUGCGGGAAAGGGGUCAACAGCCGUUCAGUACCAAGUCUCAGGGGAAACUUUGAGAUGGCCUUGCAAAGGGUAUGGUAAUAAGCUGACGGACAUGGUCCUAACCACGCAGCCAAGUCCUAAGUCAACAGAUCUUCUGUUGAUAUGGAUGCAGUUCACAGACUAAAUGUCGGUCGGGGAAGAUGUAUUCUUCUCAUAAGAUAUAGUCGGACCUCUCCUUAAUGGGAGCUAGCGGAUGAAGUGAUGCAACACUGGAGCCGCUGGGAACUAAUUUGUAUGCGAAAGUAUAUUGAUUAGUUUUGGAGUACUCGUGGUCG
The procedure, abridged:
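A randomised library covering all eight P1ex-region intron nucleotides was built with the intron in the knt kanamycin-resistance gene on pET-22b(+) and held in E. coli BL21(DE3). Cells were grown overnight at 37°C or 30°C on LB agar, with or without 25 μg/mL kanamycin, plus 100 μg/mL carbenicillin, 50 μM IPTG and 0.2% rhamnose, and pooled colonies were amplicon-sequenced on an Illumina HiSeq 2500. DiMSum fitness is the error-weighted combination of wild-type-normalised replicate fold changes, kanamycin versus none.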

Consider UCCCAGCAAUAUUACGCGAA, for which the “self-splicing fitness (ln)” value is, setting by setting: (30 °C) -2.11 ± 0.16; (37 °C) -1.07 ± 0.14. For UCCCAGCAAUAUUACGCGCG, in that order: -3.27 ± 0.17 and -2.98 ± 0.24. The like results for UCCCAGCAAUAUUACGCUGU were, in that order, -3.99 ± 0.23 and -2.18 ± 0.23. For UCCCAGCAAUAUUACGGCAC, in that order: -3.11 ± 0.12 and -1.88 ± 0.15. Consider UCCCAGCAAUAUUACGGCCA, for which the “self-splicing fitness (ln)” value (30 °C) is -0.679 ± 0.095 and the “self-splicing fitness (ln)” value (37 °C) was -0.115 ± 0.12. In the case of UCCCAGCAAUAUUACGGCUC, the “self-splicing fitness (ln)” value is -2.83 ± 0.14 (30 °C) and -2.31 ± 0.24 (37 °C).

As for UCCCAGCAAUAUUACGGGCC, the “self-splicing fitness (ln)” value is -3.03 ± 0.22 (30 °C) and -1.7 ± 0.18 (37 °C). For the sequence UCCCAGCAAUAUUACGGGGG, the “self-splicing fitness (ln)” value is -4 ± 0.18 (30 °C) and -3.66 ± 0.33 (37 °C). For UCCCAGCAAUAUUACGGGUU, in that order: -2.48 ± 0.07 and -1.54 ± 0.079.

Take UCCCAGCAAUAUUACGUAUU: the “self-splicing fitness (ln)” value runs as follows: (30 °C) -2.91 ± 0.2; (37 °C) -3.28 ± 0.28. On to UCCCAGCAAUAUUACGUCAA, for which the “self-splicing fitness (ln)” value by setting is: (30 °C) -2.71 ± 0.18; (37 °C) -1.13 ± 0.16. The like results for UCCCAGCAAUAUUACGUCAG were, in that order, -3.74 ± 0.16 and -2.83 ± 0.16. The like results for UCCCAGCAAUAUUACGUGAC were, in that order, -2.74 ± 0.15 and -3.06 ± 0.32. As for UCCCAGCAAUAUUACGUGCG, the “self-splicing fitness (ln)” value (30 °C) was -3.71 ± 0.15 and the “self-splicing fitness (ln)” value (37 °C) is -2.93 ± 0.17.

As to UCCCAGCAAUAUUACGUGGA, the “self-splicing fitness (ln)” value (30 °C) was -3.08 ± 0.14 and the “self-splicing fitness (ln)” value (37 °C) was -1.95 ± 0.15.

In the case of UCCCAGCAAUAUUACGUGUG, the “self-splicing fitness (ln)” value was -3.46 ± 0.094 (30 °C) and -2.32 ± 0.093 (37 °C). For UCCCAGCAAUAUUACGUUAC, in that order: -3.88 ± 0.22 and -2.72 ± 0.27.

As to UCCCAGCAAUAUUACGUUGC, the “self-splicing fitness (ln)” value reads like this: (30 °C) -3.5 ± 0.27; (37 °C) -2.06 ± 0.27. For UCCCAGCAAUAUUACGUUUC, the “self-splicing fitness (ln)” value runs as follows: (30 °C) -4.35 ± 0.34; (37 °C) -2.4 ± 0.28. With UCCCAGCAAUAUUACGUUUG, the “self-splicing fitness (ln)” value is, setting by setting: (30 °C) -3.67 ± 0.11; (37 °C) -2.91 ± 0.15. With UCCGAGCAAUAUUACGAACU, the “self-splicing fitness (ln)” value (37 °C) was -2.3 ± 0.32. UCCGAGCAAUAUUACGAAGA: the “self-splicing fitness (ln)” value (30 °C) is -1.62 ± 0.21 and the “self-splicing fitness (ln)” value (37 °C) was -1.12 ± 0.18. For UCCGAGCAAUAUUACGACAG, in that order: -3.18 ± 0.3 and -2.55 ± 0.3. The like results for UCCGAGCAAUAUUACGACAU were, in that order, -3.93 ± 0.031 and -2.98 ± 0.043. The like results for UCCGAGCAAUAUUACGACGG were, in that order, -1.46 ± 0.11 and -0.111 ± 0.17. With UCCGAGCAAUAUUACGAGCU, the “self-splicing fitness (ln)” value (37 °C) was -2.68 ± 0.48. Turning to UCCGAGCAAUAUUACGAGUA, the “self-splicing fitness (ln)” value was -1.98 ± 0.16 (30 °C) and -1.1 ± 0.12 (37 °C). Consider UCCGAGCAAUAUUACGCAAA, for which the “self-splicing fitness (ln)” value runs as follows: (30 °C) -3.59 ± 0.33; (37 °C) -2.51 ± 0.31. In the case of UCCGAGCAAUAUUACGCAGU, the “self-splicing fitness (ln)” value (30 °C) is -2.79 ± 0.33 and the “self-splicing fitness (ln)” value (37 °C) was -2.31 ± 0.28. The like results for UCCGAGCAAUAUUACGCAUU were, in that order, -2.2 ± 0.19 and -3.08 ± 0.37. Consider UCCGAGCAAUAUUACGCUAA, for which, for the setting “37 °C”, the “self-splicing fitness (ln)” value was -2.86 ± 0.32.

On to UCCGAGCAAUAUUACGCUCA, for which the “self-splicing fitness (ln)” value (30 °C) is -3.08 ± 0.32 and the “self-splicing fitness (ln)” value (37 °C) was -2.3 ± 0.47.

UCCGAGCAAUAUUACGCUCU: the “self-splicing fitness (ln)” value (30 °C) was -3.31 ± 0.4. Consider UCCGAGCAAUAUUACGCUGC, for which the “self-splicing fitness (ln)” value is -2.96 ± 0.24 (30 °C) and -1.84 ± 0.31 (37 °C).

Take UCCGAGCAAUAUUACGGCCG: under “30 °C”, the “self-splicing fitness (ln)” value was -4.07 ± 0.34.
